Data taken from US20220119549A1 (TAVOTEK BIOTHERAPEUTICS HONG KONG, published 2022).
Positions count from the first letter of the chain named. Names may count otherwise.

B1: TAVO186187 (antibody, human IgG1, kappa)
heavy: GIVEECCFRSCDLALLETYCAGGGGSGPLGVRGGGGSEVQLVESGGGLVQPGGSLRLSCAASGFDFADYAMHWVRQAPGKGLEWVSAITWNGGHTDYADSVKGRFTISRDNSKNTLYLQMNSLRAEDTAVYYCAKVSYLSTASSLDYWGQGTLVTVSSASTKGPSVFPLAPSSKSTSGGTAALGCLVKDYFPEPVTVSWNSGALTSGVHTFPAVLQSSGLYSLSSVVTVPSSSLGTQTYICNVNHKPSNTKVDKKVEPKSCDKTHTCPPCPAPPAAGPSVFLFPPKPKDTLMISRTPEVTCVVVDVSHEDPEVKFNWYVDGVEVHNAKTKPREEQYNSTYRVVSVLTVLHQDWLNGKEYKCKVSNKALPAPIEKTISKAKGQPREPQVYTLPPSRDELTKNQVSLTCLVKGFYPSDIAVEWESNGQPENNYKTTPPVLDSDGSFLLYSKLTVDKSRWQQGNVFSCSVLHEALHSHYTQKSLSLSPGK
light: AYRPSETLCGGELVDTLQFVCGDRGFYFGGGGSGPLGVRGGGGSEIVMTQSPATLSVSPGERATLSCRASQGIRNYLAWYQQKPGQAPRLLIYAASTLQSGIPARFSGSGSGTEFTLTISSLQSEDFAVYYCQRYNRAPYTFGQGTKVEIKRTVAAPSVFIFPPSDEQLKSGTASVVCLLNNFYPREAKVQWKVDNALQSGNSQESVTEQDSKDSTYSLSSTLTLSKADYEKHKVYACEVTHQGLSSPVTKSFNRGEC
notes: Undigested; IGF2 A chain - MMP2/9 linker (GPLGVR) - heavy chain (ADA-H2X, IgG1 Fc mutant); IGF2 B chain - linker - light chain (ADA-L1); also called anti-TNFα shielded antibody with IGF2-based masking domain; EAC186/EAC187
B2: TAVO190191 (antibody, human IgG1, kappa)
heavy: B1 heavy with G27P, P28L, L29G, G30L, V31A, R32G
light: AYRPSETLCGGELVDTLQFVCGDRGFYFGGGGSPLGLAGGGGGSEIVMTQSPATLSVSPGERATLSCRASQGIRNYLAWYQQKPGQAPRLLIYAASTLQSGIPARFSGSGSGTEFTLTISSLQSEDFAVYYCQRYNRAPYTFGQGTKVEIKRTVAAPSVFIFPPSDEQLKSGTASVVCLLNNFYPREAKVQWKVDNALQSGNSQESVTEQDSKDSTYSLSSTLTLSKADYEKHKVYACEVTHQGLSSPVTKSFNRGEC
notes: Undigested; Native IGF2 A and B chains, MMP2/9 substrate PLGLAG; also called anti-TNFα shielded antibody with IGF2-based masking domain; EAC190/EAC191
B3: TAVO188189 (antibody, human IgG1, kappa)
heavy: B1 heavy with G27P, P28L, L29G, G30L, V31A
light: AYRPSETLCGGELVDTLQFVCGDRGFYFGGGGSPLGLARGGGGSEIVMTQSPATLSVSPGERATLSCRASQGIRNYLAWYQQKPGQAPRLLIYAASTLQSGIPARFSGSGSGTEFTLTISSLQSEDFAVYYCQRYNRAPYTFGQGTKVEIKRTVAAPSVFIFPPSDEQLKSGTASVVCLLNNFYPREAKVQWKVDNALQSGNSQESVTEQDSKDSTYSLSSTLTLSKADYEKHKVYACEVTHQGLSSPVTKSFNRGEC
notes: Undigested; MMP2/9 substrate PLGLAR; also called anti-TNFα shielded antibody with IGF2-based masking domain; EAC188/EAC189
B4: TAVO190197 (antibody, human IgG1, kappa)
heavy: B1 heavy with G27P, P28L, L29G, G30L, V31A, R32G
light: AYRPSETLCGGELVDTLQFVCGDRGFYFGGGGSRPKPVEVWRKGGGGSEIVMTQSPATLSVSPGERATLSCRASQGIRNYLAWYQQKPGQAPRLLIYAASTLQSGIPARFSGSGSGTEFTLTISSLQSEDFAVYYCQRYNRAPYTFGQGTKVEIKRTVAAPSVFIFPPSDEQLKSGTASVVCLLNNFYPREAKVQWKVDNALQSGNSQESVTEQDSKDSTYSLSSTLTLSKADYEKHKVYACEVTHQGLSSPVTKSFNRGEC
notes: Undigested; also called anti-TNFα shielded antibody with two different types of protease-cleavable linkers; undigested TAVO190197
B5: TAVO271585 (antibody, human IgG1, kappa)
heavy: B1 heavy with V3L, G27P, P28L, L29G, G30L, V31A, R32G
light: AYRPSETLCGGELVDTLQFVCGDRGFAFGGGGSPLGLAGGGGGSDIVMTQSPDSLAVSLGERATINCRASQGIRNYLAWYQQKPGQAPKLLIYAASTLQSGVPDRFSGSGSGTDFTLTISSLQAEDVAVYYCQRYNRAPYTFGQGTKVEIKRTVAAPSVFIFPPSDEQLKSGTASVVCLLNNFYPREAKVQWKVDNALQSGNSQESVTEQDSKDSTYSLSSTLTLSKADYEKHKVYACEVTHQGLSSPVTKSFNRGEC
notes: Variant IGF2 mask; ADA-H2X / ADA-L2; also called EAC271/EAC585
B6: TAVO271272 (antibody, human IgG1, kappa)
heavy: B1 heavy with V3L, G27P, P28L, L29G, G30L, V31A, R32G
light: not shown
notes: Undigested; ADA-H2X / ADA-L1; also called anti-TNFα shielded antibody with variant IGF2-based masking domain; EAC271/EAC272
B7: TAVO580272 (antibody, human IgG1, kappa)
heavy: GILEECCFRSCDLALLETYCAGGGGSPLGLAGGGGGSEVQLVESGGGLVQPGGSLRLSCAASGFTFDDYAMHWVRQAPGKGLEWVSAITWNSGHIDYADSVKGRFTISRDNSKNTLYLQMNSLRAEDTAVYYCAKVSYLSTASSLDYWGQGTLVTVSSASTKGPSVFPLAPSSKSTSGGTAALGCLVKDYFPEPVTVSWNSGALTSGVHTFPAVLQSSGLYSLSSVVTVPSSSLGTQTYICNVNHKPSNTKVDKKVEPKSCDKTHTCPPCPAPPAAGPSVFLFPPKPKDTLMISRTPEVTCVVVDVSHEDPEVKFNWYVDGVEVHNAKTKPREEQYNSTYRVVSVLTVLHQDWLNGKEYKCKVSNKALPAPIEKTISKAKGQPREPQVYTLPPSRDELTKNQVSLTCLVKGFYPSDIAVEWESNGQPENNYKTTPPVLDSDGSFLLYSKLTVDKSRWQQGNVFSCSVLHEALHSHYTQKSLSLSPGK
light: not shown
notes: Variant IGF2 mask; ADA-H2 / ADA-L1; also called EAC580/EAC272
B8: TAVO580585 (antibody, human IgG1, kappa)
heavy: B7 heavy
light: B5 light
notes: Variant IGF2 mask; ADA-H2 / ADA-L2; also called EAC580/EAC585
B9: TAVO578272 (antibody, human IgG1, kappa)
heavy: B7 heavy with G47V, L48V, T115S, A125T, V130L
light: not shown
notes: Variant IGF2 mask; ADA-H1 / ADA-L1; also called EAC578/EAC272
B10: TAVO579272 (antibody, human IgG1, kappa)
heavy: B7 heavy with G47V, L48V, T65D, D67A, S92G, I95T, T115S, A125T, V130L
light: not shown
notes: Variant IGF2 mask; ADA-H1X / ADA-L1; also called EAC579/EAC272
B11: TAVO578585 (antibody, human IgG1, kappa)
heavy: B7 heavy with G47V, L48V, T115S, A125T, V130L
light: B5 light
notes: Variant IGF2 mask; ADA-H1 / ADA-L2; also called EAC578/EAC585
B12: TAVO584585 (antibody, human IgG1, kappa)
heavy: B7 heavy with E38Q, L48V, T65D, D67A, S92G, I95T
light: B5 light
notes: Variant IGF2 mask; ADA-H4X / ADA-L2; also called EAC584/EAC585
B13: TAVO584272 (antibody, human IgG1, kappa)
heavy: B7 heavy with E38Q, L48V, T65D, D67A, S92G, I95T
light: not shown
notes: Variant IGF2 mask; ADA-H4X / ADA-L1; also called EAC584/EAC272
B14: TAVO579585 (antibody, human IgG1, kappa)
heavy: B7 heavy with G47V, L48V, T65D, D67A, S92G, I95T, T115S, A125T, V130L
light: B5 light
notes: Variant IGF2 mask; ADA-H1X / ADA-L2; also called EAC579/EAC585
B15: TAVO190197 after digestion by both MMP2 and MMP3 (antibody)
heavy: EVQLVESGGGLVQPGGSLRLSCAASGFDFADYAMHWVRQAPGKGLEWVSAITWNGGHTDYADSVKGRFTISRDNSKNTLYLQMNSLRAEDTAVYYCAKVSYLSTASSLDYWGQGTLVTVSSASTKGPSVFPLAPSSKSTSGGTAALGCLVKDYFPEPVTVSWNSGALTSGVHTFPAVLQSSGLYSLSSVVTVPSSSLGTQTYICNVNHKPSNTKVDKKVEPKSCDKTHTCPPCPAPPAAGPSVFLFPPKPKDTLMISRTPEVTCVVVDVSHEDPEVKFNWYVDGVEVHNAKTKPREEQYNSTYRVVSVLTVLHQDWLNGKEYKCKVSNKALPAPIEKTISKAKGQPREPQVYTLPPSRDELTKNQVSLTCLVKGFYPSDIAVEWESNGQPENNYKTTPPVLDSDGSFLLYSKLTVDKSRWQQGNVFSCSVLHEALHSHYTQKSLSLSPGK
light: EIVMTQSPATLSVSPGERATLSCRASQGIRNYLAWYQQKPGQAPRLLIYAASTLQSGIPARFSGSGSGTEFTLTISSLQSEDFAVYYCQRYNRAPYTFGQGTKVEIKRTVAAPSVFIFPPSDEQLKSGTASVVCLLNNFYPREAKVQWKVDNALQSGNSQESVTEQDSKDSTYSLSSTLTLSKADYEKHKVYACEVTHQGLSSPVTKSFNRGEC
notes: Both chains cut; not shown: remnant of the MMP2-cleavable linker left after cleavage; remnant of the MMP3-cleavable linker left after cleavage
B16: TAVO167127 (antibody, human IgG1, kappa)
heavy: B15 heavy
light: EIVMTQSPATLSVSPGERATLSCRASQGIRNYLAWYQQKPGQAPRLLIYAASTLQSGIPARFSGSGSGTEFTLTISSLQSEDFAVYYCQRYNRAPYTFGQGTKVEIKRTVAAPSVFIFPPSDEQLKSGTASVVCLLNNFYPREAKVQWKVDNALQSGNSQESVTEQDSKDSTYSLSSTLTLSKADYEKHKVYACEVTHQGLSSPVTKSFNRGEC
notes: Control antibody, ADA-H2X / ADA-L1 variable domains, IgG1 Fc with E233P, L234A, L235A, F405L, M428L, N434S and G236 deleted; also called active anti-TNFα antibody without the IGF2-based masking domain; unmasked anti-TNFα antibody

What follows are binders tested against T1, recombinant human TNFα (human, UniProt P01375 77-233) (assay: cell-based or functional assay).
T1 sequence (P01375 77-233 limits assumed): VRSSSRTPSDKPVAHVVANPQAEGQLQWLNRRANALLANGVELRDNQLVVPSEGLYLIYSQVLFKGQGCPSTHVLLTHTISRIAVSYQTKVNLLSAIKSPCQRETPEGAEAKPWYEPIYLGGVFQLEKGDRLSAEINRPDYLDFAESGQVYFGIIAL

Row | HEK-Blue TNFα reporter assay: potency in blocking TNFα functional activity, fold lower than TAVO167127 [fold] | Binder
1 | ~50 | B1
2 | ~50 | B2
3 | ~50 | B3

The binders below were run against T1, recombinant human TNFα (assay: ELISA on human TNFα).

Row | binding result | fold more reduced binding affinity than TAVO190191 [fold] | Binder
4 | binds |  | B4
5 | binds |  | B5
6 |  | 8 | B6
7 | binds |  | B7
8 | binds |  | B8
9 | binds |  | B9
10 | binds |  | B10
11 | binds |  | B11
12 | binds |  | B12
13 | binds |  | B13
14 | binds |  | B14
15 | binds |  | B15

What follows are binders tested against T1, recombinant human TNFα (assay: ELISA, recombinant human TNFα coated at 1 µg/mL, HRP anti-human secondary).
Experimental: In this assay, 1 μg/mL recombinant human TNFα (R&D systems) was coated on an ELISA plate. Increasing concentrations of anti-TNFα shielded antibodies were applied on the plate and their binding to the recombinant human TNFα was detected by HRP-conjugated anti-human secondary antibody.

Row | fold lower binding affinity than TAVO167127 [fold] | binding result | Binder
16 | ≥ 5 |  | B1
17 | ≥ 5 |  | B2
18 | ≥ 5 |  | B3
19 |  | binds | B16
